T1: ProtA-tagged GLABRA3 (GL3) (Arabidopsis thaliana, UniProt Q9FN69 1-637)
T1 construct: GLABRA3 (GL3), basic helix-loop-helix (bHLH)-like transcription factor, Arabidopsis thaliana; Backbone pTREXdest30; The results write 'GL3-ProtA', but the methods say that the tag is fused to the N-terminus; also called GL3-ProtA; ProtA-tagged GL3; source: HEK293TM cells, transiently expressed, in lysate; not shown: Staphylococcus aureus protein A, N-terminal, kept
T1 sequence (looked up): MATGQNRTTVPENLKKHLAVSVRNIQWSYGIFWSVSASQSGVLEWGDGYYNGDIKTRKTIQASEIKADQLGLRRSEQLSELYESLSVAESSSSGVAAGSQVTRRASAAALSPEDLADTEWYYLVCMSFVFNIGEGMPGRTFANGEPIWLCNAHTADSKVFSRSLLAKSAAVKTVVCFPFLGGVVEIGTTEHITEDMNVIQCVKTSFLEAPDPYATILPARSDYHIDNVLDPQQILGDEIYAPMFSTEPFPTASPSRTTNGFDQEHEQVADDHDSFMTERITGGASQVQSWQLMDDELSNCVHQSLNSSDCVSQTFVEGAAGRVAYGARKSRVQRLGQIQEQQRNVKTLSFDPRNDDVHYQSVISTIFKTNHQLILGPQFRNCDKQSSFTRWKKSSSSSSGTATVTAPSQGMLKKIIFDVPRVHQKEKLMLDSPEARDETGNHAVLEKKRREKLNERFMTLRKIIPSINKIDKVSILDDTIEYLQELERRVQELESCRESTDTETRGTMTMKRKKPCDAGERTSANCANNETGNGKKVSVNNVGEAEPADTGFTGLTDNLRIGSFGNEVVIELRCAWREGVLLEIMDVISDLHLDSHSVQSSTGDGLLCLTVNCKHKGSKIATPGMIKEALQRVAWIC

B1: Renilla-tagged GLABRA1 (GL1) (natural protein, Arabidopsis thaliana, UniProt P27900 1-228, looked up)
chain: MRIRRRDEKENQEYKKGLWTVEEDNILMDYVLNHGTGQWNRIVRKTGLKRCGKSCRLRWMNYLSPNVNKGNFTEQEEDLIIRLHKLLGNRWSLIAKRVPGRTDNQVKNYWNTHLSKKLVGDYSSAVKTTGEDDDSPPSLFITAATPSSCHHQQENIYENIAKSFNGVVSASYEDKPKQELAQKDVLMATTNDPSHYYGNNALWVHDDDFELSSLVMMNFASGDVEYCL
notes: GLABRA1 (GL1), R2R3MYB, Arabidopsis thaliana; Backbone pTREXdest30; also called GL1-Renilla; GL1Renilla; source: HEK293TM cells, transiently expressed, in lysate; not shown: Renilla reniformis luciferase (Rluc), N-terminal, kept
B2: Renilla-tagged TRANSPARENT TESTA GLABRA1 (TTG1) (natural protein, Arabidopsis thaliana, UniProt Q9XGN1 1-341, looked up)
chain: MDNSAPDSLSRSETAVTYDSPYPLYAMAFSSLRSSSGHRIAVGSFLEDYNNRIDILSFDSDSMTVKPLPNLSFEHPYPPTKLMFSPPSLRRPSSGDLLASSGDFLRLWEINEDSSTVEPISVLNNSKTSEFCAPLTSFDWNDVEPKRLGTCSIDTTCTIWDIEKSVVETQLIAHDKEVHDIAWGEARVFASVSADGSVRIFDLRDKEHSTIIYESPQPDTPLLRLAWNKQDLRYMATILMDSNKVVILDIRSPTMPVAELERHQASVNAIAWAPQSCKHICSGGDDTQALIWELPTVAGPNGIDPMSVYSAGSEINQLQWSSSQPDWIGIAFANKMQLLRV
notes: TRANSPARENT TESTA GLABRA1 (TTG1), WD40 protein, Arabidopsis thaliana; Backbone pTREXdest30; also called TTG1-Renilla; Renilla-tagged TTG1; source: HEK293TM cells, transiently expressed, in lysate; not shown: Renilla reniformis luciferase (Rluc), N-terminal, kept
B3: Renilla-tagged CAPRICE (CPC) (natural protein, Arabidopsis thaliana, UniProt O22059 1-94, looked up)
chain: MFRSDKAEKMDKRRRRQSKAKASCSEEVSSIEWEAVKMSEEEEDLISRMYKLVGDRWELIAGRIPGRTPEEIERYWLMKHGVVFANRRRDFFRK
notes: CAPRICE (CPC), R3MYB, Arabidopsis thaliana; Backbone pTREXdest30; also called CPC-Renilla; source: HEK293TM cells, transiently expressed, in lysate; not shown: Renilla reniformis luciferase (Rluc), N-terminal, kept
B4: Renilla-tagged TRIPTYCHON (TRY) (natural protein, Arabidopsis thaliana, UniProt Q8GV05 1-106, looked up)
chain: MDNTDRRRRRKQHKIALHDSEEVSSIEWEFINMTEQEEDLIFRMYRLVGDRWDLIAGRVPGRQPEEIERYWIMRNSEGFADKRRQLHSSSHKHTKPHRPRFSIYPS
notes: TRIPTYCHON (TRY), R3MYB, Arabidopsis thaliana; Backbone pTREXdest30; also called TRY-Renilla; source: HEK293TM cells, transiently expressed, in lysate; not shown: Renilla reniformis luciferase (Rluc), N-terminal, kept

Molecular target: T1, ProtA-tagged GLABRA3 (GL3)
Experiment: pull-down; LUMIER pull-down: raw HEK293TM extracts of ProtA-tagged GL3 and a Renilla-tagged protein mixed, dilution series of the ratio, Renilla luminescence on the beads; ratios from HA Western blots; single-site reversible binding model; KD dimensionless and relative to the total GL3 concentration
Conditions: partners not purified

Binder | relative KD (KD divided by total GL3)
B1 | 0.5 dimensionless, relative to the total GL3 concentration
B2 | 1 dimensionless, relative to the total GL3 concentration
B3 | 2.3 dimensionless, relative to the total GL3 concentration
B4 | 2.7 dimensionless, relative to the total GL3 concentration
